Molecular target: recombinant full-length HSP70 in fusion with N-terminal maltose binding protein (MBP) (UniProt P0DMV8 1-641)
Test: SPR

Chain of recombinant full-length HSP70 in fusion with N-terminal maltose binding protein (MBP) (P0DMV8 whole entry, the tested form may be a part): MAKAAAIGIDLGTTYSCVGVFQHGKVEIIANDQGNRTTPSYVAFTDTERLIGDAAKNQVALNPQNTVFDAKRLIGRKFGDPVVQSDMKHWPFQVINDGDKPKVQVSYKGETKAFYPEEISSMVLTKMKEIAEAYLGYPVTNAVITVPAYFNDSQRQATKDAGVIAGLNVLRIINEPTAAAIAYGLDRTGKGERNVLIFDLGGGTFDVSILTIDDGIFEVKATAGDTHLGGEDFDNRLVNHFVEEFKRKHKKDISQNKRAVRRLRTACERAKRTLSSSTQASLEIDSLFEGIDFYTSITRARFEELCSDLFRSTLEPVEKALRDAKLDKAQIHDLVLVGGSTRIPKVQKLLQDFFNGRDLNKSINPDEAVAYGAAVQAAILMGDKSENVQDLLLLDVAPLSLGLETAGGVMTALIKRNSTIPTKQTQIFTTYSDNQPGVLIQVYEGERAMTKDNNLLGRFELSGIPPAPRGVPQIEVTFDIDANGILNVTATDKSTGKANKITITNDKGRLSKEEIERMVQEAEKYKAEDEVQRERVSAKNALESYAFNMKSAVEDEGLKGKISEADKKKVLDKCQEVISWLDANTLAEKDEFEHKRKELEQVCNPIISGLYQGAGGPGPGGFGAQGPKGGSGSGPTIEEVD

B1: NS5A domain I (domain or fragment)
chain: SGSWLRDIWDWICEVLSDFKTWLKAKLMPQLPGIPFVSCQRGYRGVWRGDGIMHTRCHCGAEITGHVKNGTMRIVGPRTCKNMWSGTFFINAYTTGPCTPLPAPNYKFALWRVSAEEYVEIRRVGDFHYVSGMTTDNLKCPCQIPSPEFFTELDGVRLHRFAPPCKPLLREEVSFRVGLHEYPVGSQLPCEPEPDVAVLTSMLTDPSHITAEA
  Kd: 316 nM

From paper PMC4284078 (Virology, 2014)
